Test [1] addresses collagen (type III).
The target of test [2] is collagen (type III). This is another data set of the same source.
For test [3], the target named is collagen.

B1: recombinant Asp-Pallidipin (protein of SEQ ID NO:1) (protein)
chain: DEECELMPPGDNFDLEKYFSIPHVYVTHSRNGPKEQVCREYKTTKNSDGTTTTTLVTSDYKTGGKPYHSELKCTNTPKSGGKGQFSVECEVPNGNGGKKKIHVETSVIATDYKNYALLQSCTKTESGIADDVLLLQTKKEGVDPGVTSVLKSVNWSLDDWFSRSKVNCDNMK
For B1, the attachment of 51Cr-labelled MTLn3 rat mammary tumor cells to collagen-coated wells (cpm) in test [1] worked out at 1080 cpm. In test [2], this molecule returned an adhesion of metastatic tumor cells to collagen of 100 nmol/L. The molecule also yielded a collagen-induced aggregation of human platelets in platelet-rich plasma (aggregometer, maximum value) in test [3] of 50 nM.

The values are drawn from US5882887.
